Among the data in patent publication US20170319722A1 are EC50, fold below the affinity of the optimal linker (PEG5) biligand and fold improvement in affinity relative to the individual PCC macrocyclic ligands values, retold here.

Assay [1] concerns the target His-tagged CD8α human recombinant protein (TP760215, Origene) (human) (UniProt P01732). The experiment in a line: sandwich ELISA; biotinylated ligand on NeutrAvidin plate, His-tagged CD8α titrated, anti-His-AP detection. In general terms: ELISA stands for enzyme-linked immunosorbent assay.
Assay [2] concerns the target His-tagged CD8α human recombinant protein (MBS968456, MyBioSource) (human) (UniProt P01732). The experiment in a line: ELISA with His-tagged CD8α human recombinant protein.
Assay [3] shares this target. The experiment in a line: sandwich ELISA; biotinylated biligand on NeutrAvidin plate, His-tagged CD8α titrated.
The target is the same in assay [4]. The experiment in a line: sandwich ELISA; biligand against its single macrocycles Cy(HGRGH) and Cy(wplrf).
The target is the same in assay [5]. In words: sandwich ELISA; biotinylated biligand on NeutrAvidin plate, His-tagged CD8α titrated, anti-His-AP detection.
The target in assay [6] is His-tagged CD8α human recombinant protein (TP760215, Origene) (human) (UniProt P01732). The experiment in a line: sandwich ELISA; range told of the group, upper end tied to Cy(rwfnv) by the legend of FIG. 5.
Sequence of His-tagged CD8α human recombinant protein (TP760215, Origene) (human) (P01732 22-182 limits assumed): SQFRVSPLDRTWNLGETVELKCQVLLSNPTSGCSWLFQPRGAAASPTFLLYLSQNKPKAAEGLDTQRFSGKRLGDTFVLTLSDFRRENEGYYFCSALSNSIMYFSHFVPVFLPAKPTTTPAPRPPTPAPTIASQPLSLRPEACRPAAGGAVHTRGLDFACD

Square brackets hold non-standard residues; d marks the D form. Primed or numbered codes have the meaning given here. Ends that are not written are not given here. * marks the point of attachment. PEG3′ = PEG linker of three ethylene glycol repeat units; Biotin = O=C1N[C@H]2[C@H](CS[C@H]2CCCCC(=O)*)N1; Lys(N3) = [N-]=[N+]=NCCCC[C@H](N)C(=O)O; Pra = C#CC[C@H](N)C(=O)O

Sequence of His-tagged CD8α human recombinant protein (MBS968456, MyBioSource) (human) (P01732 22-182 limits assumed): as above

B1: biotin-PEG3-Cy(wsvnv) (peptide)
peptide: WSVNV
modifications: all residues D-amino acids (lower case); N-terminal biotin-PEG3; triazole-cyclized (Cy) between flanking Pra and Az4
For B1, the EC50 (as a rule, the concentration needed to bring the measured effect to its halfway point) in assay [1] turned out to be 9 nM.

B2: Cy(Ghtwp)-Lys(Biotin)-PEG1-Cy(hGrGh) (peptide)
peptide 1: [Pra]G[dH][dT][dW][dP]
peptide 2: [Pra][dH]G[dR]G[dH][Lys(N3)]
modifications: not fully specified (C-terminus); printed as Cy(Ghtwp)-Lys(Biotin)-PEG1-Cy(hGrGh); also: triazole to a chain's N/C-terminus, triazole to a chain's N/C-terminus
On to B2, for which the 50% effective concentration (EC50) in assay [2] was 0.058 nM.

B3: Biotin-PEG3-Cy(HGRGH)-PEG3-Cy(wplrf) (peptide)
peptide 1: {Biotin-PEG3′}-[Pra]HGRGH
peptide 2: [Pra][dW][dP][dL][dR][dF]
modifications: not fully specified (some residues, C-terminus); numbers in words are those of the source; also: joined C-terminally through a PEG3 linker to the second macrocycle, triazole to a chain's N/C-terminus
B3: the fold below the affinity of the optimal linker (PEG5) biligand in assay [3] was 10 fold.

B4: Biotin-PEG3-Cy(HGRGH)-PEG5-Cy(wplrf) (peptide)
peptide 1: {Biotin-PEG3′}-[Pra]HGRGH
peptide 2: [Pra][dW][dP][dL][dR][dF]
modifications: not fully specified (some residues, C-terminus); printed as Biotin-PEG3-Cy(HGRGH)-PEG5-Cy(wplrf); numbers in words are those of the source; also: joined C-terminally through a PEG5 linker to the second macrocycle, triazole to a chain's N/C-terminus
Turning to B4, the fold improvement in affinity relative to the individual PCC macrocyclic ligands in assay [4] was above 30 fold. For the same molecule, the EC50 in assay [5] was 0.2 nM.

B5: Biotin-PEG3-Cy(HGRGH)-PEG7-Cy(wplrf) (peptide)
peptide 1: {Biotin-PEG3′}-[Pra]HGRGH
peptide 2: [Pra][dW][dP][dL][dR][dF]
modifications: not fully specified (some residues, C-terminus); printed as Biotin-PEG3-Cy(HGRGH)-PEG7-Cy(wplrf); numbers in words are those of the source; also: joined C-terminally through a PEG7 linker to the second macrocycle, triazole to a chain's N/C-terminus
Regarding B5, in assay [3], the fold below the affinity of the optimal linker (PEG5) biligand was 10 fold.

B6: Biotin-PEG3-Cy(HGRGH)-PEG6-Cy(wplrf) (peptide)
peptide 1: {Biotin-PEG3′}-[Pra]HGRGH
peptide 2: [Pra][dW][dP][dL][dR][dF]
modifications: not fully specified (some residues, C-terminus); printed as Biotin-PEG3-Cy(HGRGH)-PEG6-Cy(wplrf); numbers in words are those of the source; also: joined C-terminally through a PEG6 linker to the second macrocycle, triazole to a chain's N/C-terminus
Regarding B6, the fold below the affinity of the optimal linker (PEG5) biligand in assay [3] amounted to 10 fold.

B7: biotin-PEG3-Cy(ffrly) (peptide)
peptide: FFRLY
modifications: all residues D-amino acids (lower case); N-terminal biotin-PEG3; triazole-cyclized (Cy) between flanking Pra and Az4
For B7, the EC50 in assay [1] stood at 56 nM.

B8: Biotin-PEG3-Cy(HGRGH)-PEG4-Cy(wplrf) (peptide)
peptide 1: {Biotin-PEG3′}-[Pra]HGRGH
peptide 2: [Pra][dW][dP][dL][dR][dF]
modifications: not fully specified (some residues, C-terminus); printed as Biotin-PEG3-Cy(HGRGH)-PEG4-Cy(wplrf); numbers in words are those of the source; also: joined C-terminally through a PEG4 linker to the second macrocycle, triazole to a chain's N/C-terminus
For B8, the fold below the affinity of the optimal linker (PEG5) biligand in assay [3] was found to be 10 fold.

B9: biotin-PEG3-Cy(rwfnv) (peptide)
peptide: RWFNV
modifications: all residues D-amino acids (lower case); N-terminal biotin-PEG3; triazole-cyclized (Cy) between flanking Pra and Az4
With B9, the EC50 in assay [6] and in assay [1] was 62 nM throughout.

B10: biotin-PEG3-Cy(wplrf) (peptide)
peptide: WPLRF
modifications: all residues D-amino acids (lower case); N-terminal biotin-PEG3; triazole-cyclized (Cy) between flanking Pra and Az4
Consider B10, for which the concentration for a half-maximal effect (EC50) in assay [1] worked out at 16 nM.
